Data on three molecules can be found in patent US20220002427A1 (ENGMAB SARL, published 2022).

Substitutions are numbered along the chain they refer to. Several values for one entry are separate records, joined by “and”; a condition that tells them apart may be missing. Equal values may be shown once.

The chains are these.
T1: human BCMA on cells (human, UniProt Q02223 1-184)
T1 construct: whole, on cells; also called huBCMA on HEK cells; HEK-huBCMA cells
T1 sequence (looked up): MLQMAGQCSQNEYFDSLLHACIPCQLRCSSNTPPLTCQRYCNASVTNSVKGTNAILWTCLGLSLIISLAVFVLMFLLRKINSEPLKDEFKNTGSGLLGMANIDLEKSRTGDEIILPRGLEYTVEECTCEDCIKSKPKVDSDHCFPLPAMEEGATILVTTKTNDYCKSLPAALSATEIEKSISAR

T2: recombinant human BCMA Fc(kih) (human, UniProt Q02223 4-53, site-specifically biotinylated at the C-terminal avi-tag ; Biotin on the avi-tag at the C-terminus of the Fc knob chain (tag and Fc left out).)
T2 construct: Knobs-into-holes heterodimer carrying one BCMA ectodomain; also called huBCMA Fc(kih); huBCMA; not shown: human IgG1 hinge-Fc knob chain with C-terminal avi-tag, and the unfused Fc hole chain
T2 chain: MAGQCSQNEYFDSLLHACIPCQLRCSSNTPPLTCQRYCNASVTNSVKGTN

B1: Mab 33 IgG (antibody, V domains shown)
VH: EVQLLESGGGLVQPGGSLRLSCAASGFTFYTNAMGWVRQAPGKGLEWVSAINRFGGSTYYADSVKGRFTISRDNSKNTLYLQMNSLRAEDTAVYYCAKVLGWFDYWGQGTLVTVSS
VL: EIVLTQSPGTLSLSPGERATLSCRASQSVSEYYLAWYQQKPGQAPRLLIEHASTRATGIPDRFSGSGSGTDFTLTISRLEPEDFAVYYCQQYGYPPDFTFGQGTKVEIK
B2: Mab 27 IgG (antibody, V domains shown)
VH: EVQLLESGGGLVQPGGSLRLSCAASGFTFSSAPMGWVRQAPGKGLEWVSAISYIGHTYYADSVKGRFTISRDNSKNTLYLQMNSLRAEDTAVYYCAKVLGWFDYWGQGTLVTVSS
VL: B1 VL
B3: Mab 42 IgG (antibody, V domains shown)
VH: B1 VH with Y30S, T31D, N52S, R53G, F54P, G56S
VL: B1 VL with E31D, Y32E, A35S, E50H, H51S, T75A
notes: also called antibody 42; clone 42

A word on the EC50: it is the midpoint of the concentration-response curve. High values mean a need for much substance, low ones an effect from little substance. As a reminder, the Kd is the free concentration of one partner at which half of the binding sites on the other are occupied at equilibrium, for simple one-to-one binding. Usually koff stands for the rate constant with which the complex falls apart. Broadly, the kon is a measure of how fast the partners come together.

T3 sequence (A0A2K5UD97 entry or part of it): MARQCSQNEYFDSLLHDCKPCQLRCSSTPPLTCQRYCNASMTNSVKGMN

In one assay the target is T1, human BCMA on cells. Nature of the assay: flow cytometry on HEK-huBCMA cells, PE anti-human Fc detection.
Regarding B1, the 50% effective concentration (EC50) was 1.18 nM and 0.17 µg/mL.

For B2, the concentration giving a half-maximal response (EC50) was 10.6 nM and 1.52 µg/mL.

In the case of B3, the EC50 was 2.1 nM and 0.3 µg/mL.

The next assay concerns the target T3, recombinant cynomolgus BCMA Fc(kih) (cynomolgus, UniProt A0A2K5UD97 4-51). Nature of the assay: ratio of SPR KD values (KD cynomolgus BCMA / KD human BCMA), reference human BCMA Fc(kih). The procedure:
(§1) The avidity of the interaction between anti-BCMA antibodies and recombinant BCMA Fc(kih) (human and cynomolgus) was determined. Biotinylated recombinant human and cynomolgus BCMA Fc(kih) were directly coupled on a SA chip following instructions (Biacore, Freiburg/Germany). The immobilization level ranged from 200 to 700 RU. […] The dissociation was monitored for 180 seconds. Bulk refractive index differences were corrected for by subtracting the response obtained on the reference flow cell. Here, the anti-BCMA antibodies were flown over an empty surface previously activated and deactivated as described in the standard amine coupling kit. Apparent kinetic constants were derived using the Biacore T200 Evaluation Software (vAA, Biacore AB, Uppsala/Sweden), to fit rate equations for 1:1 Langmuir binding by numerical integration, despite the bivalency of the interaction for comparison purposes. The affinity of the interaction between anti-BCMA antibodies and recombinant human BCMA Fc(kih) was also determined. Anti-human Fab antibody (GE Healthcare) was directly coupled on a CMS chip at pH 5.0 using the standard amine coupling kit (Biacore, Freiburg/Germany). The immobilization level was about 6500 RU. […] The dissociation was monitored for 120 seconds. Bulk refractive index differences were corrected for by subtracting the response obtained on reference flow cell. […] Kinetic constants were derived using the Biacore T100 Evaluation Software (vAA, Biacore AB, Uppsala/Sweden), to fit rate equations for 1:1 Langmuir binding by numerical integration (Table 4).
Based on the affinity values described in Example 2, the affinity of anti-BCMA antibodies to human BCMA vs. cynomolgus BCMA were compared and cyno/hu affinity ratio (gap) values were calculated (Table 5).
On to B1, for which the Affinity cyno/hu gap was determined as 4.2 fold.

B2: the Affinity cyno/hu gap was found to be 12.7 fold.

With B3, the Affinity cyno/hu gap worked out at 1.7 fold.

The target of a further assay is T3, recombinant cynomolgus BCMA Fc(kih). Nature of the assay: SPR (Biacore T200), IgG captured via anti-human Fab, BCMA Fc(kih) as analyte, 1:1 Langmuir fit. The procedure: as §1, with “Assessment of binding of anti-BCMA antibodies to recombinant BCMA by surface plasmon resonance (SPR) as follow. […] The avidity” for “The avidity”
A general note: Surface plasmon resonance follows binding to a sensor surface in real time, without labels.
Take B1: the Kd came to 739 pM, the koff came out at 9.76e-05 s⁻¹ and the kon turned out to be 132000 M⁻¹ s⁻¹.

As to B2, the Kd is 2110 pM, the off-rate (koff) was found to be 0.000455 s⁻¹ and the on-rate (kon) was 216000 M⁻¹ s⁻¹.

On to B3, for which the equilibrium dissociation constant (Kd) came to 641 pM, the koff worked out at 0.000453 s⁻¹ and the kon is 707000 M⁻¹ s⁻¹.

The target of another assay is T2, recombinant human BCMA Fc(kih). Described as above. The procedure: as §1, with “Assessment of binding of anti-BCMA antibodies to recombinant BCMA by surface plasmon resonance (SPR) as follow. […] The avidity” for “The avidity”
Take B1: the Kd was 178 pM, the koff turned out to be 3.55e-05 s⁻¹ and the kon was determined as 200000 M⁻¹ s⁻¹.

As to B2, the Kd was 165 pM, the koff was found to be 5.93e-05 s⁻¹ and the on-rate (kon) was found to be 359000 M⁻¹ s⁻¹.

In the case of B3, the dissociation constant Kd is 371 pM, the koff came to 0.000298 s⁻¹ and the kon is 803000 M⁻¹ s⁻¹.

The target of another assay is T3, recombinant cynomolgus BCMA Fc(kih). Nature of the assay: SPR one-shot kinetics (ProteOn XPR36), IgG captured from HEK293 supernatant via anti-human F(ab)2, BCMA as analyte. How it is done: (§2) All experiments were performed at 25° C. using PBST as running buffer (10 mM PBS, pH 7.4 and 0.005% (v/v) Tween®20). A ProteOn XPR36 biosensor equipped with GLC and GLM sensor chips and coupling reagents (10 mM sodium acetate, pH 4.5, sulfo-N-hydroxysuccinimide, 1-ethyl-3-(3-dimethylaminopropyl)-carbodiimide hydrochloride [EDC] and ethanolamine) was purchased from BioRad Inc. (Hercules, Calif.). Immobilizations were performed at 30 μl/min. on a GLM chip. pAb (goat) anti hu IgG, F(ab)2 specific Ab (Jackson) was coupled in vertical direction using a standard amine-coupling procedure: all six ligand channels were activated for 5 min with a mixture of EDC (200 mM) and sulfo-NHS (50 mM). Immediately after the surfaces were activated, pAb (goat) anti hu IgG, F(ab)2 specific antibody (50 μg/ml, 10 mM sodium acetate, pH 5) was injected across all six channels for 5 min. Finally, channels were blocked with a 5 min injection of 1 M ethanolamine-HCl (pH 8.5). […] One-shot kinetic measurements were performed by injection of a dilution series of human, cyno and mouse BCMA (50, 10, 2, 0.4, 0.08, 0 nM, 50 μl/min) for 3 min along the vertical channels. Dissociation was monitored for 5 min Kinetic data were analyzed in ProteOn Manager v. 2.1. Processing of the reaction spot data involved applying an interspot-reference and a double-reference step using an inline buffer blank (Myszka, 1999). The processed data from replicate one-shot injections were fit to a simple 1:1 Langmuir binding model without mass transport (O'Shannessy et al., 1993).
Turning to B1, the Kd came to 34 pM.

Turning to B2, the Kd came out at 100 pM.

Turning to B3, the Kd is 390 pM.

The next assay concerns the target T2, recombinant human BCMA Fc(kih). The description is as above. How it is done:
as §2
In the case of B1, the Kd is 17 pM.

Turning to B2, the Kd was 0.39 pM.

Take B3: the Kd was 230 pM.

For a further assay, the target named is T4, murine BCMA extracellular domain, monomeric Fc-fusion (murine, UniProt O88472 1-49, site-specifically biotinylated at the C-terminal avi-tag).
T4 construct: extracellular domain; also called muBCMA; mouse BCMA; not shown: hinge and Fc of human IgG1, knob chain; avi-tag; unfused human IgG1 Fc portion (hole chain)
T4 sequence (O88472 whole entry, the tested form may be a part): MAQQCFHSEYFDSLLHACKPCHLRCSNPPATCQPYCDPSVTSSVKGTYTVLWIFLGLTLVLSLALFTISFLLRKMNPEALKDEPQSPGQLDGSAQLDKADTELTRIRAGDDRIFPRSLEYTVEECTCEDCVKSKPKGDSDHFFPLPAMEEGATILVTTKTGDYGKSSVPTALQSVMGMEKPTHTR
The assay is described as above. How it is done:
as §2
Consider B1, for which binding was put at a Kd of 490 pM.

On to B2, for which the Kd is 970 pM.

In turn, B3 came in with a Kd of 2500 pM.
